Here are results for seven molecules from patent US20050154189A1 (MAXYGEN, published 2005).

Test [1] deals with T1, Soluble CTLA-4-Ig (human, UniProt P16410 36-161, FITC-conjugated in the two-colour FACS assays; unlabelled and detected with FITC goat anti-human IgG in the concentration-dependent assay).
T1 construct: extracellular domain; Bought from R&D Systems; also called sCTLA-4-Ig; CTLA-4-Ig Fc; not shown: Fc portion of human IgG1
Nature of the test: FACS of transfected cells, Round 1 clones.

Test [2] concerns the target T2, Soluble CD28-Ig (human, UniProt P10747 19-152, biotin-conjugated (NHS-biotin) in the labelled-ligand FACS assays).
T2 construct: extracellular domain; Bought from R&D Systems; also called sCD28-Ig; CD28-Ig Fc; not shown: Fc portion of human IgG1
Nature of the test: two-colour FACS profile on transfected cells; score of preference for CD28-Ig over CTLA-4-Ig vs WT hB7-1.

Test [3] deals with T2, Soluble CD28-Ig. Nature of the test: receptor binding assay, data not shown.
Test [4] deals with T1, Soluble CTLA-4-Ig. Nature of the test: receptor binding assay, data not shown.
The target in test [5] is T2, Soluble CD28-Ig. As to the kind of experiment: two-colour FACS on transfected 293 cells. The procedure:
(§1) Biotin binds the fluorescence marker Streptavidin-PE. (R-PE has an excitation maximum of 565 nanometers (nm) and an emission maximum of 578 nm. B-PE has excitation and emission maxima of 545 nm and 578 nm, respectively. FITC has excitation and emission maxima of 494 and 519, respectively.) The cells were again washed twice and resuspended in 200 μl medium with 5 μg/ml propidium iodide (PI). The cells were then analyzed using a FACSCalibur flow cytometer and CellQuest software (BDIS, San Jose, Calif.). Cell sorting was performed by flow-cytometry based cell sorting screening methods using FACS (Fluorescence-Activated Cell Sorting) Vantage SE cell sorter (BDIS) (Becton Dickinson; San Jose, Calif.). The staining concentration was determined for each labeled protein to provide a maximal Mean Fluorescence Intensity (MFI) and minimal background signal (e.g., optimum staining concentration was the concentration per 10⁶ cells).

Test [6] concerns the target T1, Soluble CTLA-4-Ig. As to the kind of experiment: two-colour FACS on transfected 293 cells. The procedure:
as §1

The target in another test is human CD28 receptor (human, UniProt P10747 19-220). Nature of the test: cell-based or functional assay.

T1 sequence (P16410 36-161): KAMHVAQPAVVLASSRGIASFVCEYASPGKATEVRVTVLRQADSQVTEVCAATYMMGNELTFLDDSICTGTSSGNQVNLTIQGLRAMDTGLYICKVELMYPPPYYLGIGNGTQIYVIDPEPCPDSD

B1: Round 1 CD28BP-84 (ligand)
chain: GISQVTKSVKEMAALSCDYNISIDELARMRIYWQKDQQMVLSIISGQVEVWPEYKNRTFPDIINNLSLMILALRLSDKGTYTCVVQKNENGSFRREHLTSVTLSIRADSPVPSITDIGHPAPNVKRIRCSASGGFPEPRLAWMEDGEELNAVNTTVDQDLDTELYSVSSELDFNVTNNHSIVCLIKYGELSVSQIFPWSKPKQEPPIDQLPFWVIIPVSGALVLTAVVLYCLACRHVARWKRTRRNEETVGTERLSPIYLGSAQSSG
notes: also called R1clone 84; Clone 84
For the molecule B1, the binding result with Soluble CTLA-4-Ig [1] was “binds”. In addition, in the test with Soluble CD28-Ig [2], the “Binding Score” value came out at 1.

B2: Round 1 CD28BP-118 (ligand)
chain: GISQVTKSVKEMAALSCDYNISIDELARMRIYWQKDQQMVLSIISGQVEVWPEYKNRTFPDIINNLSLMILALRLSDKGTYTCVVQKNENGSFRREHLTSVTLSIRADFPVPSITDIGHPAPNVKRIRCSASGDFPEPRLAWMEDGEELNAVNTTVDQDLDTELYSVSSELDFNVTNNHSIVCLIKYGELSVSQIFPWSKPKQEPPIDQLPFWVIIPVSGALVLTAVVLYCLACRHVARWKRTRRNEETVGTERLSPIYLGSAQSSG
notes: also called R1clone 118; Clone 118
For B2, the binding result with Soluble CTLA-4-Ig [1] is listed as “binds”. The “Binding Score” value with Soluble CD28-Ig [2] amounted to 1.

B3: Round 2 CD28F11-8 (ligand)
chain: ITPKSVTKRVKETVMLSCDYNTSTEELTSLRIYWQKDSKMVLAILPGKVQVWPEYKNRTITDMNDNPRIVILALRLSDSGTYTCVIQKPVLKGAYKLEHLTSVRLMIRADFPVPTINDLGNPSPNIRRLICSTSGGFPRPHLYWLENGEELNATNTTLSQDPETKLYMISSELDFNMTSNLCLVKYGDLTVSQTFYWQESKPTPSANQHLTWTIIIPVSAFGISVIIAVILTCLTCRNAAIRRQRRENEVEMQSCSQSP
As for B3, the “Binding Score” value with Soluble CD28-Ig [2] was found to be 0.

B4: Baboon B7-1 (ligand)
chain: VIHVTKEVKEVATLSCGHNVSVEELAQTRIYWQKEKKMVLTMMSGDMNIWPEYKNRTIFDITNNLSIVILALRPSDEGTYECVVLKYEKDAFKREHLAEVMLSVKADFPTPSITDFEIPPSNIRRIICSTSGGFPEPHLFWLENGEELNAINTTVSQDPGTELYTVSSKLDFNMTTNHSFVCLIKYGHLRVNQTFNWNTPKQEHFPDNLLPSWAITLISVNGIFVICCLTYCFAPRCRERRRNETLRRESVRPV
notes: Wild-type parental gene expressed on transfected 293 cells
Turning to B4, the binding result in the test with Soluble CD28-Ig [3] and with Soluble CTLA-4-Ig [4] was “binds” each time.

B5: Rhesus B7-1 (ligand)
chain: VIHVTKEVKEVATLSCGHNVSVEELAQTRIYWQKEKKMVLTMMSGDMNIWPEYKNRTIFDITNNLSIVILALRPSDEGTYECVVLKYEKDAFKREHLAEVMLSVKADFPTPSITDFEIPPSNIRRIICSTSGGFPEPRLSWLENGEELNAISTTVSQDPETELYTVSSKLDFNMTTNHSFMCLIKYGHLRVNQTFNWNTPKQEHFPDNLLPSWAITLISVNGIFVICCLTHCFAPRCRERRRNETLRRESVRPV
notes: Wild-type parental gene expressed on transfected 293 cells; also called rhesus monkey B7-1
On to B5, for which the binding result with Soluble CD28-Ig [5] and in the test with Soluble CTLA-4-Ig [6] was “binds” in each case.

B6: Orangutan B7-1 (ligand)
chain: VIHVTKEVKEVATLSCGHNVSVEELAQTRIYWQKEKKMVLTMMSGDMNIWPEYKNRTIFDITNNLSIVILALRPSDEGTYECVVLKYEKDAFKREHLAEVTLSVKADFPTPSISDFEIPTSNIRRMICSTSGGFPEPHLSWLENGEELNAISTTVSQDPETELYAVSSKLDFNMTTNHSFMCLIKYGHLRVNQTFNWNTPKQEHFPDNLLPSWAITLISVNGIFVICCLTYCFAPRCRERRSNERLRRESVRPV
notes: as for B4
As for B6, the binding result in the test with Soluble CD28-Ig [3] and in the test with Soluble CTLA-4-Ig [4] was “binds” throughout.

B7: Round 2 CD28BP-15 (ligand)
chain: ITPKSVTKRVKETVMLSCDYNTSTEELTSLRIYWQKDSKMVLAILPGKVQVWPEYKNRTITDMNDNPRIVILALRPSDSGTYTCVIQKPVLKGAYKLEHLASVRLMIRADFPVPTINDLGNPSPNIRRLICSTSGGFPRPHLYWLENGEELNATNTTVSQDPGTELYMISSELDFNVTNNHSIVCLIKYGELSVSQIFPWSKPKQEPPIDQLPFWVIIPVSGALVLTAVVLYCLACRHVARWKRTRRNEETVGTERLSPIYLGSAQSSG
notes: Full-length clone on transiently or stably transfected 293 cells; The end 303 is the end of the entry as counted; also called R2 CD28BP-15; clone 15
For the molecule B7, the “T cell proliferation (3H-thymidine incorporation) of purified human T cells with anti-CD3 mAbs” value in the test with human CD28 receptor is roughly 10 fold. Moreover, the “Binding Score” value with Soluble CD28-Ig [2] is 2.
